# T1: full length human CD154 on stably transfected mouse fibroblasts (human, UniProt P29965 1-261)
# T1 construct: whole, on cells; also called membrane CD154; hCD154
# T1 sequence (looked up): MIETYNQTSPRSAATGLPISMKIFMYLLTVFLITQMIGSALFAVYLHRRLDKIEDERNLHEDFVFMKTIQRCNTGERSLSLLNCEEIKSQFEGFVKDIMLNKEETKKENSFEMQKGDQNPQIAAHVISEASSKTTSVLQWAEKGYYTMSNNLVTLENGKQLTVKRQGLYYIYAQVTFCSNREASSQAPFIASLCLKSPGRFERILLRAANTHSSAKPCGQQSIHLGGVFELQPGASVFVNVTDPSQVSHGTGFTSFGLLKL
# B1: CD40 NJ3 splice variant (receptor)
# chain: EPPTACREKQYLINSQCCSLCQPGQKLVSDCTEFTETECLPCGESEFLDTWNRETHCHQHKYCDPNLGLRVQQKGTSETDTICTCEEGWHCTSEACESCVLHRSCSPGFGVKQIATGVSDTICEPCPVGFFSNVSSAFEKCHPWTSCETKDLVVQQAGTNKTDVVCGESWTMGPGESLGRSPGSAESPGGDPHHLRDPVCHPLGAGLYQKGGQEANQ
# notes: For ELISA and FACS it was expressed non-fused with baculovirus, secreted and purified from the supernatant on a G28-5 column; also called CD40 NJ3 variant; CD40 variant NJ3
# B2: CD40 NJ1 splice variant (receptor)
# chain: EPPTACREKQYLINSQCCSLCQPGQKLVSDCTEFTETECLPCGESEFLDTWNRETHCHQHKYCDPNLGLRVQQKGTSETDTICTCEEGWHCTSEACESCVLHRSCSPGFGVKQIATGVSDTICEPCPVGFFSNVSSAFEKCHPWTSCETKDLVVQQAGTNKTDVVCGESWTMGPGESLGRWELKGEMRHTGTLDGKKGRGGSLGVWYHSSATYLGSLGKSLPLS
# notes: For ELISA and FACS it was expressed non-fused with baculovirus, secreted and purified from the supernatant on a G28-5 column; also called CD40 NJ1 variant; CD40 variant NJ1
# Target: T1, full length human CD154 on stably …
# Assay: flow cytometry on mouse fibroblasts transfected with human CD154, detected with PE-EA-5
# Experimental: 10⁶ mouse fibroblasts (stably transfected with full length human CD154) were incubated with CD40 NJ1 (FIGS. 7-8) or CD40 NJ3 variants (FIGS. 9-11). All the proteins were incubated at a concentration of 1-50 μg/ml at 4° C. for 60 min in total volume of 100 μl (0.5×10^6 cells). […] Analysis was performed using BD FACsCalibur. A known CD40 soluble variant was used (in the form of a FC tagged protein) as a positive control for detecting binding to CD154 (U.S. patent application No. 60/547,422, hereby incorporated by reference as if fully set forth herein) (FIG. 17-18).
# Briefly, the FACS protocol was as follows. Mouse fibroblasts were trypsinized, and washed twice in PBS; cells were centrifuged at 1500 rpm for 10 min between washes. Next, the cells were re-suspended in FACS buffer (0.2% BSA and 0.02% sodium azide diluted 1/10 in PBS) to give 5-10×10⁶ cells mL. Cells were placed in FACS test-tubes at a volume of 100 or 200 microliters per tube.
# Next, 2 μL (1:50) […] non-blocking antibody (EA-5 mouse IgG1 PE-conjugated, obtained from Calbiochem) or controls (same isotype PE conjugated) were added to the tubes, and incubated for 30 min at 4° C. The process of washing was then repeated with 5 mL PBS. Next, 0.5 mL PBS was added to tubes, which were read in a FACS machine (BD FACSCalibur).
row,Binder,binding result
1,B1,binds
2,B2,binds
